Earlier results in article PMC3463409.

Molecular target: Cys30 (UniProt position 49, FFSFFCPHCYQ)
Conditions: not stated (a thiol pKa implies the reduced form of the active-site cysteine)

Substance: Thiol:disulfide interchange protein DsbA (Escherichia coli)
- pKa: 3.5
